For one assay, the target named is T1, His10/Avi Human IL33-01 (human).
T1 chain: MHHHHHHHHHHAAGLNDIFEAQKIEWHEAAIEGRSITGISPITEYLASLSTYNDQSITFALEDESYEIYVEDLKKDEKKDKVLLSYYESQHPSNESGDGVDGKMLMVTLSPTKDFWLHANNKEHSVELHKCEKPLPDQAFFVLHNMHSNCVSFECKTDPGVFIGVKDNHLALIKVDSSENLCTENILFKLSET
In words: cell-based or functional assay.

In assay [1] the target is T2, Cynomolgus IL-33 Flag®His (cynomolgus monkey).
T2 construct: C-terminal FLAG 10xHis tag, E. coli; also called Mature Cynomolugus IL-33; cyno IL-33 FH
T2 chain: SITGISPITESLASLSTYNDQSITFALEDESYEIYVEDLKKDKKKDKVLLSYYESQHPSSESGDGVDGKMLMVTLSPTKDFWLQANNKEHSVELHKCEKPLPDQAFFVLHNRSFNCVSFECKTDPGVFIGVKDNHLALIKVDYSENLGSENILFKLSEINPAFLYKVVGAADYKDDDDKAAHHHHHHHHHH
In words: HTRF, test protein competing with biotinylated IL33-01 for DyLight650 labelled IgG. How it is done: (§1) Human, cyno and mouse IL-33 FLAG® His (described in Example 1 and Table 21), Human IL-1 alpha and IL-1 beta (R&D Systems) (Table 21) or rat IL-33 (GenScript) were tested for inhibition of human IL-33 binding to DyLight650 labelled 33_640087-7B or DyLight650 labelled 33_640237-2B by adding 5 microlitres of each dilution of sample to a 384 well low volume assay plate (Costar, 3673). […] This was followed by the addition of 2.5 microlitres of a solution containing 0.12 nM biotinylated human IL-33-01 combined with 0.75 nM streptavidin cryptate detection (Cisbio International, 610SAKLB). All dilutions were performed in assay buffer containing 0.8 M potassium fluoride (VWR, 26820.236) and 0.1% bovine serum albumin (BSA, PAA, K05-013) in Dulbeccos PBS (Invitrogen, 14190185). Assay plates were incubated for 4 hours at room temperature followed by 18 hours at 4 degrees Celsius and time resolved fluorescence was read at 620 nm and 665 nm emission wavelengths using an EnVision plate reader (Perkin Elmer). Data were analysed by calculating the 665/620 nm ratio followed by the % Delta F values for each sample. The 665/620 nm ratio was used to correct for sample interference using Equation 1. The % Delta F for each sample was then calculated using Equation 2. The negative control (non-specific binding) was defined by replacing biotinylated human IL-33 combined with streptavidin cryptate detection with streptavidin cryptate detection only. The % Delta F values were subsequently used to calculate % specific binding as described in Equation 3. IC₅₀ values were determined using GraphPad Prism software by curve fitting using a four-parameter logistic equation (Equation 4).
(In TR-FRET formats the signal depends on donor and acceptor labels being close together.)

In assay [2] the target is T3, Human IL-33 Flag®His (human).
T3 construct: Mature IL-33 with C-terminal FLAG 10xHis tag, from E. coli; biotinylated via free cysteines where used biotinylated; also called Mature Human IL-33_FH; human IL-33 FH
T3 chain: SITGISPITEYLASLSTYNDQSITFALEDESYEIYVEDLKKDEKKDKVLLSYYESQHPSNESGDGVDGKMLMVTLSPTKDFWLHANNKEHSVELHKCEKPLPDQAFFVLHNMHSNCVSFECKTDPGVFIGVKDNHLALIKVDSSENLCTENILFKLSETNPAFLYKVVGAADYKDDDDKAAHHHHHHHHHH
The description is as above. How it is done:
as §1

The target in assay [3] is T4, Mouse IL-33 Flag®His (mouse).
T4 construct: C-terminal FLAG 10xHis tag, E. coli; also called Mature Mouse IL-33_FH; mouse IL-33 FH
T4 chain: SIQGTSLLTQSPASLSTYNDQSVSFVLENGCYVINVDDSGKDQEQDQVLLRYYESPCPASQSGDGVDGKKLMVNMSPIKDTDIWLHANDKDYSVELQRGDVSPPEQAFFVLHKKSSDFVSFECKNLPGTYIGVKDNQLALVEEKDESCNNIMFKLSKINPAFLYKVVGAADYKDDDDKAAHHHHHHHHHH
Described as above. As to the method:
as §1

For assay [4], the target named is T5, Human IL-1 alpha (R&D Systems) (human, UniProt P01583 113-271).
T5 sequence (looked up): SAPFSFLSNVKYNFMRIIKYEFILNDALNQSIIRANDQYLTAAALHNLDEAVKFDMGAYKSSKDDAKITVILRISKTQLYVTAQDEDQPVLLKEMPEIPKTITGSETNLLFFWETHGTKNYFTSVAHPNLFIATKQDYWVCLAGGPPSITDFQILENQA
In words: HTRF: unlabelled test protein competes with biotinylated human IL33-01 for DyLight650 labelled 33_640237-2B IgG. The gist of the method: (§2)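 HTRF competition: dilutions of unlabelled test protein competed with biotinylated human IL-33-01 (0.12 nM solution, with 0.75 nM streptavidin cryptate) for DyLight650-labelled 33_640087-7B or 33_640237-2B, in DPBS with 0.8 M KF and 0.1% BSA. Incubation was 4 h at RT, then 18 h at 4 °C. The 665/620 nm ratio gave % specific binding; IC50 by four-parameter fit.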

The next assay deals with T6, Rat IL-33 (GenScript) (rat, UniProt Q66H70 109-264, limits assumed).
T6 sequence (looked up): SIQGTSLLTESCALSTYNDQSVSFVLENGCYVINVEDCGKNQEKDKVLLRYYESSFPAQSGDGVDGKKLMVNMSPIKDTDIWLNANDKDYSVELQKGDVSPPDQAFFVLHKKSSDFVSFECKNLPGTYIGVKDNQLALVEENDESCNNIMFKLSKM
The description is as above. The gist of the method:
as §2

The target of assay [5] is Human IL-1 beta (R&D Systems) (human, UniProt P01584 117-269). The description is as above. Put shortly: as §2
For assay [6], the target named is T2, Cynomolgus IL-33 Flag®His. The experiment in a line: phage ELISA.
The target in assay [7] is T3, Human IL-33 Flag®His. In words: phage ELISA.
Assay [8] has as its target T4, Mouse IL-33 Flag®His. In words: phage ELISA. In general terms: An ELISA detects its analyte on a solid surface through an enzyme-linked reagent.
The target in assay [9] is T7, Human ST2-Fc (R&D Systems, or source not stated in the example) (human, UniProt Q01638 19-328).
T7 construct: extracellular domain; also called sST2.Fc; sST2
T7 sequence (looked up): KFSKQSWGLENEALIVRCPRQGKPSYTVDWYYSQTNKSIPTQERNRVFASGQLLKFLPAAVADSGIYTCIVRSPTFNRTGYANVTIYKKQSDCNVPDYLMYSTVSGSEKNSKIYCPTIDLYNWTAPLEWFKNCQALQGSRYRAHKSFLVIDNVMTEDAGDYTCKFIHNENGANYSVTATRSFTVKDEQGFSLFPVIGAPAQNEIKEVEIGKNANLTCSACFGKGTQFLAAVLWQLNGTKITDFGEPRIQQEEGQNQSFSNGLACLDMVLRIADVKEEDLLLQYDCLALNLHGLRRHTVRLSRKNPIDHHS
In words: Biacore T100, ST2-Fc captured on Protein G', peptide as analyte. The source says:
The identified peptide together with a truncate ([…]) and scrambled variants of both, were then chemically synthesised and used in confirmatory T100 Biacore (GE Healthcare) binding studies. Protein G′ (Sigma Aldrich, P4689) was covalently coupled to the surface of a CM5 sensor chip (GE Healthcare) using standard amine coupling reagents according to manufacturer's instructions. The protein G′ surface was used to capture H338L293 or ST2-Fc via the Fc domain to provide a surface density of approximately 290 RU per cycle. IL33 peptides prepared in HBS-EP+ buffer, at a range of concentrations were passed over the sensor chip surface. The surface was regenerated using two 10 mM Glycine washes of pH 1.7 and pH 1.5 between each injection of antibody. The resulting sensorgrams were evaluated using Biacore T100 evaluation software 2.0.3 (GE Healthcare) and fitted to a 1:1 Langmuir binding model, to provide relative binding data.

B1: 33_640237-2B IgG1 (antibody, V domains shown)
VH: EVQLLESGGGLVQPGGSLRLSCAASGFTFSSYAMSWVRQAPGKGLEWVSGIADDFTSTYYADPVKGRFTISRDNSKNTLYLQMNSLRAEDTAVYYCARDLWMMNYAGGLRYPFGYWGQGTMVTVSS
VL: SYVLTQPPSVSVSPGQTASITCSGERMGDKYAAWYQQKPGQSPVLVIYRDTKRPSGIPERFSGSNSGNTATLTISGTQAMDEADYYCGVLKQDTGVFGGGTKLTVL
notes: IgG1
As to B1, in the assay with His10/Avi Human IL33-01, the “IC50 (nM) vs. His Avi IL-33, Huvec IL-8 assay” value amounted to 0.067 nM. Further, the binding result in [1] is listed as “binds”; with Human IL-33 Flag®His [2], “binds”; with Mouse IL-33 Flag®His [3], “no binding”; in assay [4], “no binding (tested: about 10^-5.8 M)”; with Rat IL-33 (GenScript), “no binding (tested: about 10^-5.5 M)”; in assay [5] it was “no binding (tested: about 10^-5.8 M)”.

B2: IL330180 scFv (scFv, V domains shown)
VH: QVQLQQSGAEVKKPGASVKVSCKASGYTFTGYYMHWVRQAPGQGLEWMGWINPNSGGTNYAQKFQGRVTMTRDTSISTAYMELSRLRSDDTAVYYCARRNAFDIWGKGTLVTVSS
VL: QPVLTQPPSVSEAPRQRVTISCSGSSSNIGNNAVNWYQQLPGTAPKLLIYRNNQRPSGVPDRFSGSKSGTSASLAISGLRSEDEADYYCAAWDDSLSGWVFGGGTKVNVL
For B2, the results for the binding result (in [6]; in the assay with Human IL-33 Flag®His [7]; with Mouse IL-33 Flag®His [8]) were “no binding”, “binds” and “no binding”, respectively.

B3: IL-33 tryptic epitope peptide (full length synthetic epitope peptide) (peptide)
peptide: MLMVTLSPTKDFWLHANNKEHSVELHK
notes: Chemically synthesised; also called predicted tryptic IL-33 fragment
Turning to B3, the binding result in assay [9] is reported as “no binding”.
